Data reported in patent US20120302737A1 (Genentech, published 2012).

Experiments:
[1] = target: T1, HER2 receptor ECD (UniProt P04626 23-652, limits assumed); experiment: Octet; antibody loaded on the probe, 1st antigen HER2
T1 construct: extracellular domain; also called HER2ECD; HER2 extracellular domain

[2] = target: T2, EGFR on cells (NR6 expressing EGFR; HCA7) (UniProt P00533 25-1210, limits assumed); experiment: equilibrium binding on HCA7 cells co-expressing EGFR and HER2, radiolabeled antibody competed with unlabeled antibody
T2 construct: whole, on cells; also called EGFR-NR6; EGFR-expressing NR6 cells

[3] = target: T2, EGFR on cells (NR6 expressing EGFR; …); experiment: equilibrium binding on NR6 cells expressing EGFR, radiolabeled antibody competed with unlabeled antibody
[4] = target: T1, HER2 receptor ECD; experiment: Octet; loaded probe, 1st antigen HER2

| binding result [1] | Kd [2] | Kd [3] | binding result [4] | Binder |
| --- | --- | --- | --- | --- |
| no binding | 0.34 nM | 0.56 nM | – | wild-type α-EGFR antibody (D1.5) (antibody, human IgG1, kappa, V domains shown, also called Wt α-EGFR (D1.5); D1.5 anti-EGFR antibody) VH: EVQLVESGGGLVQPGGSLRLSCAASGFTFTGNWIHWVRQAPGKGLEWVGEISPSGGYTDYADSVKGRFTISADTSKNTAYLQMNSLRAEDTAVYYCARESRVSYEAAMDYWGQGTLVTVSS VL: DIQMTQSPSSLSASVGDRVTITCRASQDVSTAVAWYQQKPGKAPKLLIYSASFLYSGVPSRFSGSGSGTDFTLTISSLQPEDFATYYCQQSYPTPYTFGQGTKVEIKR |
| – | – | 1.15 nM | no binding | one-armed α-EGFR engineered antibody (antibody, also called 1-armed α-EGFR; One-Armed EGFR) heavy: not shown not shown light: DIQMTQSPSSLSASVGDRVTITCRASQDVSTAVAWYQQKPGKAPKLLIYSASFLYSGVPSRFSGSGSGTDFTLTISSLQPEDFATYYCQQSYPTPYTFGQGTKVEIKRTVAAPSVFIFPPSDEQLKSGTASVVCLLNNFYPREAKVQWKVDNALQSGNSQESVTEQDSKDSTYSLSSTLTLSKADYEKHKVYACEVTHQGLSSPVTKSFNRGEC |
